From patent US20090209433

Target: VDAC from Yeast (voltage dependent anion selective channel), purified (UniProt P04840)

Substance: bovine cytochrome c oxidase holoenzyme (crystal grade)
- KM (µM) at VDAC 50 nM: 28 µM
- KM (µM) at VDAC 100 nM: 44 µM
- KM (µM) at VDAC 200 nM: 59 µM
- VMAX (µM/min) at VDAC 50 nM: 132 µM/min
- VMAX (µM/min) at VDAC 100 nM: 199 µM/min
- VMAX (µM/min) at VDAC 200 nM: 224 µM/min
- VMAX/KM (1/min) at VDAC 50 nM: 4.7 min⁻¹
- VMAX/KM (1/min) at VDAC 100 nM: 4.5 min⁻¹
- VMAX/KM (1/min) at VDAC 200 nM: 3.8 min⁻¹
